Measured values reported in patent US20190040138A1 (AKESO BIOPHARMA, published 2019).

Key:
[1] = molecular target: T1, PD-1 antigen stably expressed on the surface of BB007 cells (UniProt Q15116 25-288, limits assumed); test: flow cytometry on BB007 cells; antibody 1 nM
T1 construct: whole, on cells; also called target protein PD-1 on the surface of the BB007 cell
Method: (§1) The binding efficiencies of H1L1, H2L2 and H3L3 antibodies to PD-1 antigen stably expressed on the surface of cells (named as BB007 cells) were determined by flow cytometry. The BB007 cells were obtained by routine trypsin digestion, and then washed with PBS buffer once, followed by dividing into several tubes, with 2×10⁵ cells per tube. After dilution into concentrations of 20 nM, 10 nM, 5 nM, 1 nM, 0.1 nM and 0 nM with the PBS buffer containing 1% BSA for each of the H1L1, H2L2 and H3L3 antibodies, individual antibodies in a volume of 100 μl were added into individual tubes and incubated on ice for 1 hour. After the mixture was washed with the PBS buffer once, 100 μl FITC-Goat-Anti-Human IgG (in 1:500 dilution) was added for each tube and incubated on ice for 1 hour, followed by addition of 300 μl the PBS buffer for detecting fluorescence signal with a FITC channel on the flow cytometer.

[2] = molecular target: T2, PD-1-mIgGFc fusion protein; test: competitive ELISA on coated PD-1-mIgGFc; competitor PDL1-mIgG2aFc 0.3 µg/ml; antibody 1.5 µg/ml diluted 1:9; replicate 1
T2 construct: also called PD-1-mFc; PD-1-mIgGFc antigen
T2 sequence (chain, as listed by the source limits assumed): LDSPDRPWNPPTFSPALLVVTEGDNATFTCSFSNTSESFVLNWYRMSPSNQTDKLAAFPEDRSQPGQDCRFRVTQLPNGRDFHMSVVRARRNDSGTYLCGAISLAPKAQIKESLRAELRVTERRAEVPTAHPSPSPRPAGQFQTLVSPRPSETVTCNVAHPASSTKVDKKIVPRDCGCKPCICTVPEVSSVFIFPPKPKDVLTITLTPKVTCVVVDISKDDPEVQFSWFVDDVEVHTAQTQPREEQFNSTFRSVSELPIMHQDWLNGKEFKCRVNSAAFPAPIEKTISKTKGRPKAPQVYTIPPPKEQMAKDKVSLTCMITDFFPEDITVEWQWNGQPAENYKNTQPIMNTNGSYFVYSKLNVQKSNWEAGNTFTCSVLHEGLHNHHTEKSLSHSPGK
Method: (§2) A 96-well ELISA plate was coated with PD-1-mIgGFc antigen in a concentration of 0.5 μg/ml (50 μl per well) by incubation at 4° C. overnight.
(§3) The 18A10 H1L1, 18A10 H2L2 and 18A10 H3L3 antibodies each were diluted from 3 μg/ml in series by 1:3, with 7 gradient antibody solutions obtained for each antibody. The 7 gradient antibody solutions for each antibody and the blank PBS control (50 μl per well) were respectively added into the blocked 96-well ELISA plate for incubation at room temperature for 10 minutes.
(§4) After the 96-well ELISA plate was washed with the PBST buffer for three times and gently patted to dryness, goat anti-mouse IgG-HRP (H+L) as a secondary antibody in 1:5000 dilution (50 μl per well) was added for incubation at 37° C. for 1 hour.

[3] = molecular target: T2, PD-1-mIgGFc fusion protein; test: ELISA on coated PD-1-mFc; antibody 1 µg/ml diluted 1:3; replicate 1
Method: (§5) An ELISA plate was coated with PD-1-mFc antigen in a concentration of 0.5 μg/ml (50 μl per well) by incubation at 4° C. overnight.
(§6) After the ELISA plate was washed with the PBST buffer for three times and gently patted to dryness again, TMB as a developer in 50 μl per well was added for incubation at room temperature for 5 to 10 minutes.
(§7) The absorbance of solution in each well was measured with the microplate reader under a wavelength of 450 nm.

[4] = molecular target: T2, PD-1-mIgGFc fusion protein; test: competitive ELISA on coated PD-1-mIgGFc; competitor PDL1-mIgG2aFc 0.3 µg/ml; antibody 1.5 µg/ml diluted 1:81; replicate 1
Method: as §2, §3, §7

[5] = molecular target: T2, PD-1-mIgGFc fusion protein; test: competitive ELISA on coated PD-1-mIgGFc; competitor PDL1-mIgG2aFc 0.3 µg/ml; antibody 1.5 µg/ml diluted 1:3; replicate 2
Method: as §2, §3, §4

[6] = molecular target: T2, PD-1-mIgGFc fusion protein; test: competitive ELISA on coated PD-1-mIgGFc; competitor PDL1-mIgG2aFc 0.3 µg/ml; antibody 1.5 µg/ml diluted 1:9; replicate 2
Method: as §2
[…] The 7 gradient antibody solutions for each antibody and the blank PBS control (50 μl per well) were respectively added into the blocked 96-well ELISA plate for incubation at room temperature for 10 minutes.
as §4

[7] = molecular target: biotin-labeled PD-1 antigen (UniProt Q15116 25-167, limits assumed, biotin-labeled (site not stated)); test: BLI (Fortebio), biotin-labeled PD-1 on SA sensor
Sequence of biotin-labeled PD-1 antigen (Q15116 25-167 limits assumed): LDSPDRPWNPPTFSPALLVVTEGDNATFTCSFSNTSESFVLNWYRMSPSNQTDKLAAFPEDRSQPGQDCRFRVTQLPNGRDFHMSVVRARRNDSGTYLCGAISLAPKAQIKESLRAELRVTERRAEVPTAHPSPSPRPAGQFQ
Method: Kinetic characteristic parameters of 18A10 H1L1, H2L2 and H3L3 antibodies were determined using the Fortebio molecule interaction instrument.
The biotin-labeled PD-1 antigen was immobilized on the surface of the SA sensor. […] Assays for H2L2 and H3L3 are the same as H1L1. Results of kinetic characteristic parameters of the H1L1, H2L2 and H3L3 antibodies are shown in Table 4, FIG. 4, FIG. 5 and FIG. 6.

[8] = molecular target: T2, PD-1-mIgGFc fusion protein; test: ELISA on coated PD-1-mFc; antibody 1 µg/ml diluted 1:81; replicate 2
Method: as §5, §6, §7

[9] = molecular target: T2, PD-1-mIgGFc fusion protein; test: ELISA on coated PD-1-mFc; antibody 1 µg/ml diluted 1:27; replicate 1
Method: as §5, §6, §7

[10] = molecular target: T2, PD-1-mIgGFc fusion protein; test: competitive ELISA on coated PD-1-mIgGFc; competitor PDL1-mIgG2aFc
Method: as §2, §3

[11] = molecular target: T2, PD-1-mIgGFc fusion protein; test: competitive ELISA on coated PD-1-mIgGFc; competitor PDL1-mIgG2aFc 0.3 µg/ml; antibody 1.5 µg/ml diluted 1:27; replicate 1
Method: as §2, §3, §4

[12] = molecular target: T1, PD-1 antigen stably expressed on the …; test: flow cytometry on BB007 cells; antibody 20 nM
Method: as §1

[13] = molecular target: T2, PD-1-mIgGFc fusion protein; test: competitive ELISA on coated PD-1-mIgGFc; competitor PDL1-mIgG2aFc 0.3 µg/ml; antibody 1.5 µg/ml; replicate 2
Method: as §2, §3, §7

[14] = molecular target: T2, PD-1-mIgGFc fusion protein; test: competitive ELISA on coated PD-1-mIgGFc; competitor PDL1-mIgG2aFc 0.3 µg/ml; antibody 1.5 µg/ml diluted 1:243; replicate 2
Method: as §2, §3, §4

[15] = molecular target: T2, PD-1-mIgGFc fusion protein; test: ELISA on coated PD-1-mFc; antibody 1 µg/ml diluted 1:27; replicate 2
Method: as §5, §6, §7

[16] = molecular target: T2, PD-1-mIgGFc fusion protein; test: ELISA on coated PD-1-mFc; antibody 1 µg/ml diluted 1:243; replicate 1
Method: as §5, §6, §7

[17] = molecular target: T2, PD-1-mIgGFc fusion protein; test: ELISA on coated PD-1-mFc; antibody 1 µg/ml diluted 1:3; replicate 2
Method: as §5, §6, §7

[18] = molecular target: T1, PD-1 antigen stably expressed on the …; test: flow cytometry on BB007 cells
Method: as §1

T1 sequence (Q15116 25-288 limits assumed): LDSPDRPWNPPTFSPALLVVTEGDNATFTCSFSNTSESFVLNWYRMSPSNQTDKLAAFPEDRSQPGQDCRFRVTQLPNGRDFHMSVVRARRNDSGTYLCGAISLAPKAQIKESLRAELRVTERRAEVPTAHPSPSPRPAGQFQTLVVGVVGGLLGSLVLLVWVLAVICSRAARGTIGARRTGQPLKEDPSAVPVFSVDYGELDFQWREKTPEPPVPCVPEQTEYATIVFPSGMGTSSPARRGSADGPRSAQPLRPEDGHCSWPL

B1: humanized antibody 18A10 H2L2 (antibody, V domains shown)
VH: EVQLVQSGGGLVQPGGSLKLSCAASGFTFSSYGMSWVRQAPGKGLDWVATISGGGRDTYYPDSVKGRFTISRDNSKNNLYLQMNSLRAEDTALYYCARQKGEAWFAYWGQGTLVTVSS
VL: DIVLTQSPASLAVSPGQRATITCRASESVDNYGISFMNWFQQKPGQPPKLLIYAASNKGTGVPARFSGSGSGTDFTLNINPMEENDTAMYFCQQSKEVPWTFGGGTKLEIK
notes: also called H2L2 antibody
- fluorescence intensity [1]: 92.5
- absorbance at 450 nm (competition) [2]: 0.474
- absorbance at 450 nm [3]: 2.13
- absorbance at 450 nm (competition) [4]: 1.09
- absorbance at 450 nm (competition) [5]: 0.097
- absorbance at 450 nm (competition) [6]: 0.506
- Kd [7]: 0.0428 nM
- koff [7]: 9.86e-06 s⁻¹
- kon [7]: 231000 M⁻¹ s⁻¹
- absorbance at 450 nm [8]: 1.14
- absorbance at 450 nm [9]: 1.78
- EC50 [10]: 0.838 nM
- absorbance at 450 nm (competition) [11]: 0.951
- fluorescence intensity [12]: 329
- absorbance at 450 nm (competition) [13]: 0.102
- absorbance at 450 nm (competition) [14]: 1.21
- absorbance at 450 nm [15]: 1.63
- absorbance at 450 nm [16]: 0.545
- absorbance at 450 nm [17]: 2.36
- EC50 [18]: 1.59 nM

B2: humanized antibody 18A10 H1L1 (antibody, V domains shown)
VH: EVQLVQSGGGLVQPGGSLKLSCAASGFTFSSYGMSWVRQTPEKGLDWVATISGGGRDTYYPDSVKGRFTISRDNSKNNLYLQMNSLRAEDTALYYCARQKGEAWFAYWGQGTLVTVSS
VL: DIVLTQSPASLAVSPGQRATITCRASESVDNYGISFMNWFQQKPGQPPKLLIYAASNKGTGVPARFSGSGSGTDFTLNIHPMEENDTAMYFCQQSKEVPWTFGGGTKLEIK
notes: also called H1L1 antibody
- fluorescence intensity [1]: 64.4
- absorbance at 450 nm (competition) [2]: 0.625
- absorbance at 450 nm [3]: 2.35
- absorbance at 450 nm (competition) [4]: 1.29
- absorbance at 450 nm (competition) [5]: 0.109
- absorbance at 450 nm (competition) [6]: 0.586
- Kd [7]: 0.036 nM
- koff [7]: 1.32e-05 s⁻¹
- kon [7]: 367000 M⁻¹ s⁻¹
- absorbance at 450 nm [8]: 0.834
- absorbance at 450 nm [9]: 1.62
- EC50 [10]: 0.992 nM
- absorbance at 450 nm (competition) [11]: 1.06
- fluorescence intensity [12]: 358
- absorbance at 450 nm (competition) [13]: 0.107
- absorbance at 450 nm (competition) [14]: 1.21
- absorbance at 450 nm [15]: 1.65
- absorbance at 450 nm [16]: 0.45
- absorbance at 450 nm [17]: 2.34
- EC50 [18]: 3.38 nM

B3: humanized antibody 18A10 H3L3 (antibody, V domains shown)
VH: EVQLVQSGGGLVQPGGSLKLSCAASGFTFSSYGMSWVRQAPGKGLDWVATISGGGRDTYYPDSVKGRFTISRDNSKNTLYLQMNSLRAEDTAVYYCARQKGEAWFAYWGQGTLVTVSS
VL: DIVLTQSPASLAVSPGQRATITCRASESVDNYGISFMNWYQQKPGQPPKLLIYAASNKATGVPARFSGSGSGTDFTLNINPMEANDTAVYFCQQSKEVPWTFGGGTKLEIK
notes: also called H3L3 antibody
- fluorescence intensity [1]: 110
- absorbance at 450 nm (competition) [2]: 0.7
- absorbance at 450 nm [3]: 2.29
- absorbance at 450 nm (competition) [4]: 1.09
- absorbance at 450 nm (competition) [5]: 0.108
- absorbance at 450 nm (competition) [6]: 0.678
- Kd [7]: 0.114 nM
- koff [7]: 1.56e-05 s⁻¹
- kon [7]: 137000 M⁻¹ s⁻¹
- absorbance at 450 nm [8]: 0.809
- absorbance at 450 nm [9]: 1.58
- EC50 [10]: 1.19 nM
- absorbance at 450 nm (competition) [11]: 1
- fluorescence intensity [12]: 367
- absorbance at 450 nm (competition) [13]: 0.102
- absorbance at 450 nm (competition) [14]: 1.21
- absorbance at 450 nm [15]: 1.5
- absorbance at 450 nm [16]: 0.432
- absorbance at 450 nm [17]: 2.09
- EC50 [18]: 1.68 nM
